This data set deals with the molecule itself. Briefly: analytical size-exclusion chromatography; self-association (homodimer). Background: In gel filtration, larger molecules generally elute earlier.

B1: recombinant ACC2 catalytic domain (carboxyltransferase domain of human Acetyl-Coenzyme A Carboxylase 2, residues 1715-2483 of SEQ. ID No. 1) with a … (enzyme)
chain: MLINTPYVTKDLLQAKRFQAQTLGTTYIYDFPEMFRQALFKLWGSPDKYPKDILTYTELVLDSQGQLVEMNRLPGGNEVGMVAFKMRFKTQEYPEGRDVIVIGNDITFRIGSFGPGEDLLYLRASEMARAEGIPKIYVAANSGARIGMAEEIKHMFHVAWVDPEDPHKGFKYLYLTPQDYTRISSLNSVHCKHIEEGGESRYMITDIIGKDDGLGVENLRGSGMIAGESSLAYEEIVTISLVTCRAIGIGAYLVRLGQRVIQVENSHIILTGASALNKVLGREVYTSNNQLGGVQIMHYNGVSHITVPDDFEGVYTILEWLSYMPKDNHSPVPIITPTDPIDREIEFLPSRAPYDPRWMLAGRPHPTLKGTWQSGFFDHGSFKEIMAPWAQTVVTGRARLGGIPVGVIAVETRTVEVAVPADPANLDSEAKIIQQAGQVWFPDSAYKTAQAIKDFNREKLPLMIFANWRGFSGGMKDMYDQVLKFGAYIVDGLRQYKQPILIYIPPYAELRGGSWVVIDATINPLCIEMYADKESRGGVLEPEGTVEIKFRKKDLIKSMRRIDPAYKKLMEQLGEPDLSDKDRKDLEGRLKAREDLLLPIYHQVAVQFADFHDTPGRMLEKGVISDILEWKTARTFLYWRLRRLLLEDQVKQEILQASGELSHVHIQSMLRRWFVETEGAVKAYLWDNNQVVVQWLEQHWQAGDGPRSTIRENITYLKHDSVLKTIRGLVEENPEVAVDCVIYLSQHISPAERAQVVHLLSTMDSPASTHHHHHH
modifications: one acetylation observed by mass spectrometry (position not given)
notes: The entries describe its self-association into the homodimer (two copies of this chain); Expressed in Sf9 insect cells; In the crystal it is in complex with acetyl-CoA, a small molecule; also called carboxyltransferase domain of ACC2; ID No. 3
For B1, the binding result is reported as “binds”.

These data come from US7534592 (Takeda / Millennium, dated 2009).
